# Test results from patent US20170296680A1 (NATIONAL RESEARCH COUNCIL OF CANADA, published 2017).
# Several values for one entry are separate records, joined by “and”; a condition that tells them apart may be missing. Equal values may be shown once.
# Experiments:
# [1] = biological target: T1, recombinant human tau protein, isoform 2N4R (Tau-441) (human, UniProt P10636-8 1-441); assay: SPR, sdAb stored at 4 C, 30 days after IMAC purification
# T1 construct: Bought
# [2] = biological target: T1, recombinant human tau protein, isoform …; assay: SPR, sdAb stored at 4 C, 34 days after IMAC purification
# [3] = biological target: T1, recombinant human tau protein, isoform …; assay: SPR, sdAb stored at 4 C, 42 days after IMAC purification
# [4] = biological target: T1, recombinant human tau protein, isoform …; assay: SPR, sdAb stored at 4 C, 55 days after IMAC purification
# [5] = biological target: T1, recombinant human tau protein, isoform …; assay: SPR (Biacore 3000), over immobilized Tau-441, duplicate injection
# Procedure: (§1) Surface Plasmon Resonance (SPR): All binding assays for DH-Tau15 and Fc-Tau15 were carried out at 25° C. on a Biacore™ 3000 instrument (GE Healthcare). […] The running buffer for all SPR experiments was HBS-EP+ (10 mM HEPES, 150 mM NaCl, 3 mM EDTA, pH 7.4, 0.05% surfactant P20; GE Healthcare). The antibodies were injected at 20 μL/min for 2 min with a dissociation time of 30 min. Data was analyzed using the Biacore 3000 BIAevaluations software Version 4.1.
# [6] = biological target: T1, recombinant human tau protein, isoform …; assay: SPR (Biacore T200), sdAb over immobilized antigen, steady state fit
# Procedure: (§2) Surface Plasmon Resonance (SPR): All binding assays for Tau15 and Tau81 were carried out at 25° C. on a Biacore™ T200 instrument (GE Healthcare). […] The running buffer for all SPR experiments was HBS-EP+ (10 mM HEPES, 150 mM NaCl, 3 mM EDTA, pH 7.4, 0.05% surfactant P20; GE Healthcare). The sdAb were injected at 20 μL/min for 3 min with a dissociation time of 7 min for the test run, and at 20 μL/min for 2 min with a dissociation time of 6 min for the steady state analysis. Data was analyzed using the Biacore T200 evaluations software Version 2.0.
# (§3) The KD value for the interaction between Tau15 and Tau81 sdAb and immobilized tau were derived by fitting the data to a steady state model and are reported in Table 1. […] Size exclusion chromatograms (FIG. 4) confirmed that Tau15 and Tau81 were monomeric.
# [7] = biological target: hyperphosphorylated tau (tau-p; University of Victoria); assay: as above
# Procedure: as §2, §3
# [8] = biological target: T1, recombinant human tau protein, isoform …; assay: SPR (Biacore 3000), over immobilized Tau-441
# Procedure: as §1
# T1 sequence (P10636 other isoform, or with tags, fused parts or gaps limits assumed): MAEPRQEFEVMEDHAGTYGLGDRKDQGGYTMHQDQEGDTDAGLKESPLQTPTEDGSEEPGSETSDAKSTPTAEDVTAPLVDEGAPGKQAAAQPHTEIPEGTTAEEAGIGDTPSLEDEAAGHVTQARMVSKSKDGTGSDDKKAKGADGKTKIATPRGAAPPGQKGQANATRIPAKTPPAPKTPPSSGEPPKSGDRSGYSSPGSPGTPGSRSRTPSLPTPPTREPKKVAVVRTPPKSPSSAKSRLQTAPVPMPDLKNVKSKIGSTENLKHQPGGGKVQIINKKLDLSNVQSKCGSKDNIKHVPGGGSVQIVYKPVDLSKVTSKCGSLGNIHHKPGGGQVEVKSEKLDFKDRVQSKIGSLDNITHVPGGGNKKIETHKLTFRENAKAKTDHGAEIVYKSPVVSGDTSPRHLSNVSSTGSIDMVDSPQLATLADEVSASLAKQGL
Kd [1],Kd [2],Kd [3],Kd [4],koff [5],Kd [6],Kd [7],fold slower off rate than monomeric Tau15 [8],Binder
605 nM,820 nM,534 nM,590 nM,0.0632 s⁻¹ and 0.0667 s⁻¹,699 nM,622 nM,,"Tau15 (VHH, Llama single-domain antibody with VH (not VHH) hallmark residues in FR2; monomeric by SEC; expressed in E. coli periplasm; also called 3Tau15; sdAb Tau15; not shown: C-terminal cmyc and His6 tags (pSJF2H vector); OmpA leader removed on secretion) VHH: QVKLEESGGGLVQPGGSLRLSCAASGFTFSNFAMTWVRQSPGKGLEWVSAIDNDGGRTSYSDSVKGRFTISRDNAKNTLYLQMNSLKPEDTAMYYCAAMNLATRKWELWGQGTQVTVSS"
,,,,4.27e-05 s⁻¹ and 3.45e-05 s⁻¹,,,~1000 fold,"dimeric human hinge Tau15 (DH-Tau15) (VHH, dimer through the hinge; also called dimeric hinge Tau15; hinge dimer) VHH: QVKLEESGGGLVQPGGSLRLSCAASGFTFSNFAMTWVRQSPGKGLEWVSAIDNDGGRTSYSDSVKGRFTISRDNAKNTLYLQMNSLKPEDTAMYYCAAMNLATRKWELWGQGTQVTVSS"
105 nM,175 nM,660 nM,507 nM,,820 nM,745 nM,,"Tau81 (VHH, Llama single-domain antibody with VH hallmark residues in FR2; mainly monomeric by SEC; also called 7Tau81; sdAb Tau81; not shown: C-terminal cmyc and His6 tags (pSJF2H vector); OmpA leader removed on secretion) VHH: QVQLVESGGGLVQPGGSLKLSCAASGFTGDHYAMSWVRQAPGKGLEWVSTIYSYSPNTYYVDSVKDRFTISLDNAKNTLYLQMNSLKPEDTAVYYCAADLEVAEYYAYWGQGTQVTVSS"
